This assay addresses GAPDH (purified recombinant, no tag named) (UniProt P04406). Nature of the assay: ELISA. For orientation: An ELISA detects its analyte on a solid surface through an enzyme-linked reagent.

The term Kd denotes the constant that tells how readily two partners part at equilibrium.

Chain of NleB-FLAG (purified) (enzyme) (Q5XMK8 whole entry): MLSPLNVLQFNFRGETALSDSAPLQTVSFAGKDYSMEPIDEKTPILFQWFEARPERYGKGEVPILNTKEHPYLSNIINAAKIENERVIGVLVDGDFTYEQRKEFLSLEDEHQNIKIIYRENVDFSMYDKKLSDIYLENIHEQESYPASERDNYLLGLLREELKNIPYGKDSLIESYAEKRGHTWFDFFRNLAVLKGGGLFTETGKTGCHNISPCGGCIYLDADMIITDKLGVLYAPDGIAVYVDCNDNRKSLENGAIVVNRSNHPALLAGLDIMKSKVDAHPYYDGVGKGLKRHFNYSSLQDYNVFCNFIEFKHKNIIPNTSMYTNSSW

For NleB-FLAG (purified) (enzyme), the Kd was 32 µM.
